To fix the notation:
T1: recombinant human CD123-Fc (human, UniProt P26951 19-305)
T1 construct: not shown: Fc part of CD123-Fc
T1 sequence: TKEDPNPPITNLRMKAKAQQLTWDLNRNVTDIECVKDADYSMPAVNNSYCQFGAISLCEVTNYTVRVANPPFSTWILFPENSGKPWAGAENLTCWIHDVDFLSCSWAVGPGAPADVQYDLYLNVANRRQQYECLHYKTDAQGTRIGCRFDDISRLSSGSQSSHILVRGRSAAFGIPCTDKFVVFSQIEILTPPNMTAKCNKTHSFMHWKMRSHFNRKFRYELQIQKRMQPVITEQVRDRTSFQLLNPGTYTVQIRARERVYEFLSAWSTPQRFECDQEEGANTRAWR

B1: SEQ ID NO: 559 (designed binder)
chain: MGSWTEFTQRLEAIVDRLFALGGSEAELAEFENSIADFEWDLQWYKGKGNPEVEALNREAVAIDNELWAYRHN
notes: D domain, on phage
B2: SEQ ID NO: 569 (designed binder)
chain: MGSWNEFVERLSAIDHRLWALGGSEAELADFEQQIAEFEIHLQEYKGKGNPEVEALDFEADAIFDELLAYRHN
notes: D domain, on phage
B3: SEQ ID NO: 567 (designed binder)
chain: MGSWYEFWDRLTAIEHRLWALGGSEAELAYFEDSIAHFEGSLQVYKGKGNPEVEALYKEAEAIEWELEAYRHN
notes: D domain, on phage
B4: SEQ ID NO: 578 (designed binder)
chain: MGSWYEFVSRLDAIEYRLWALGGSEAELAWFEWDIADFEQGLQFYKGKGNPEVEALAQEANAIGSELTAYRHN
notes: D domain, on phage
B5: SEQ ID NO: 554 (designed binder)
chain: MGSWDEFYYRLVAITHRLHALGGSEAELAWFEDDIAGFEWDLQTYKGKGNPEVEALYKEAGAIGMELTAYRHN
notes: D domain, on phage
B6: SEQ ID NO: 575 (designed binder)
chain: MGSWLEFESRLWAIWDRLDALGGSEAELAHFEQDIADFEMSLQEYKGKGNPEVEALIREAEAIETELYAYRHN
notes: D domain, on phage
B7: SEQ ID NO: 553 (designed binder)
chain: MGSWEEFYMRLVAIHMRLRALGGSEAELAVFENYIAEFEEYLQYYKGKGNPEVEALTIEADAIGTELGAYRHN
notes: D domain, on phage
B8: SEQ ID NO: 573 (designed binder)
chain: MGSWTEFEERLEAIWDRLYALGGSEAELAAFEWDIAYFEDGLQEYKGKGNPEVEALFMEAEAIIRELKAYRHN
notes: D domain, on phage
B9: SEQ ID NO: 571 (designed binder)
chain: MGSWAEFDSRLDAIAQRLFALGGSEAELAHFEDFIAQFEYSLQEYKGKGNPEVEALSNEADAIFNELKAYRHN
notes: D domain, on phage
B10: SEQ ID NO: 579 (designed binder)
chain: MGSWEEFDYRLYAIQDRLYALGGSEAELAFFEWEIADFEHMLQMYKGKGNPEVEALFQEADAIDAELHAYRHN
notes: D domain, on phage
B11: SEQ ID NO: 572 (designed binder)
chain: MGSWAEFDSRLIAIFDRLWALGGSEAELAWFEDDIAQFEQHLQAYKGKGNPEVEALRQEADAITFELKAYRHN
notes: D domain, on phage
B12: SEQ ID NO: 557 (designed binder)
chain: MGSWEEFHERLDAIDERLEALGGSEAELAFFEDDIASFEDWLQWYKGKGNPEVEALSREADAINFELEAYRHN
notes: D domain, on phage
B13: SEQ ID NO: 565 (designed binder)
chain: MGSWFEFDQRLDAITFRLWALGGSEAELAEFEDVIALFEYHLQDYKGKGNPEVEALEVEAWAIFHELGAYRHN
notes: D domain, on phage
B14: SEQ ID NO: 576 (designed binder)
chain: MGSWMEFEDRLIAIWARLDALGGSEAELAWFEADIADFEESLQEYKGKGNPEVEALIFEAIAINKELMAYRHN
notes: D domain, on phage
B15: SEQ ID NO: 545 (designed binder)
chain: MGSWYEFDHRLEAIYDRLWALGGSEAELAFFEFDIADFEWDLQSYKGKGNPEVEALFDEAAAIGHELLAYRHN
notes: D domain, on phage
B16: SEQ ID NO: 568 (designed binder)
chain: MGSWYEFDDRLWAIFDRLFALGGSEAELAFFEDSIAEFEEELQHYKGKGNPEVEALYLEAWAIENELGAYRHN
notes: D domain, on phage
B17: SEQ ID NO: 556 (designed binder)
chain: MGSWREFDQRLWAIDWRLEALGGSEAELAMFEWMIATFEDDLQWYKGKGNPEVEALYREAFAIDWELDAYRHN
notes: D domain, on phage
B18: SEQ ID NO: 555 (designed binder)
chain: MGSWEEFDTRLLAIFGRLGALGGSEAELALFEMLIAKFEDDLQNYKGKGNPEVEALSEEAFAIDHELGAYRHN
notes: D domain, on phage
B19: SEQ ID NO: 560 (designed binder)
chain: MGSWVEFIMRLDAIYERLDALGGSEAELAEFEWHIADFEDHLQWYKGKGNPEVEALFEEADAIWEELWAYRHN
notes: D domain, on phage
B20: SEQ ID NO: 577 (designed binder)
chain: MGSWFEFTIRLEAIQDRLDALGGSEAELAWFEWDIAEFEEGLQFYKGKGNPEVEALHTEADAIMNELVAYRHN
notes: D domain, on phage
B21: SEQ ID NO: 548 (designed binder)
chain: MGSWTEFDDRLFAIYWRLDALGGSEAELAWFEEVIAEFENDLQVYKGKGNPEVEALDDEAHAISIELEAYRHN
notes: D domain, on phage
B22: SEQ ID NO: 561 (designed binder)
chain: MGSWNEFLLRLDAIEHRLFALGGSEAELAEFEWEIADFEDDLQWYKGKGNPEVEALVEEAEAIDVELVAYRHN
notes: D domain, on phage
B23: SEQ ID NO: 543 (designed binder)
chain: MGSWEEFDVRLDAIFNRLWALGGSEAELAEFEFDIAWFEMDLQEYKGKGNPEVEALFDEAEAITNELVAYRHN
notes: D domain, on phage
B24: SEQ ID NO: 549 (designed binder)
chain: MGSWSEFDQRLEAIWNRLDALGGSEAELADFEREIAYFENQLQWYKGKGNPEVEALNNEAFAIVDELGAYRHN
notes: D domain, on phage
B25: SEQ ID NO: 552 (designed binder)
chain: MGSWYEFESRLEAIWWRLEALGGSEAELAQFEQYIADFEQHLQWYKGKGNPEVEALDWEADAIWLELQAYRHN
notes: D domain, on phage
B26: SEQ ID NO: 570 (designed binder)
chain: MGSWSEFVDRLDAIFDRLWALGGSEAELAWFEDTIAHFEWNLQEYKGKGNPEVEALNGEADAITDELHAYRHN
notes: D domain, on phage
B27: SEQ ID NO: 542 (designed binder)
chain: MGSWEEFDQRLDAIDVRLYALGGSEAELAEFEFDIAAFEEWLQLYKGKGNPEVEALNMEAFAITDELCAYRHN
notes: D domain, on phage
B28: SEQ ID NO: 540 (designed binder)
chain: MGSWYEFDDRLDAIAYRLNALGGSEAELAWFEWEIAEFELDLQWYKGKGNPEVEALVWEADAIEWELEAYRHN
notes: D domain, on phage
B29: SEQ ID NO: 544 (designed binder)
chain: MGSWEEFDKRLDAITRRLMALGGSEAELAEFESTIAWFEWDLQEYKGKGNPEVEALDWEAYAIDYELGAYRHN
notes: D domain, on phage
B30: SEQ ID NO: 547 (designed binder)
chain: MGSWVEFDDRLDAIWERLDALGGSEAELAWFEEQIAVFEHQLQDYKGKGNPEVEALNQEAEAIDLELKAYRHN
notes: D domain, on phage
B31: SEQ ID NO: 563 (designed binder)
chain: MGSWEEFHWRLGAIDARLEALGGSEAELAWFEDGIADFEAILQDYKGKGNPEVEALDSEAVAIHHELWAYRHN
notes: D domain, on phage
B32: SEQ ID NO: 550 (designed binder)
chain: MGSWYEFDERLWAIWERLDALGGSEAELAHFEWVIADFENDLQWYKGKGNPEVEALEFEAEAIVTELHAYRHN
notes: D domain, on phage
B33: SEQ ID NO: 551 (designed binder)
chain: MGSWMEFDYRLEAIWMRLIALGGSEAELADFESSIADFEHHLQSYKGKGNPEVEALEWEAFAIGVELDAYRHN
notes: D domain, on phage
B34: SEQ ID NO: 541 (designed binder)
chain: MGSWFEFDERLDAIGSRLTALGGSEAELASFEFYIADFEEWLQQYKGKGNPEVEALEWEAFAIDEELGAYRHN
notes: D domain, on phage
B35: SEQ ID NO: 566 (designed binder)
chain: MGSWSEFWFRLDAIEDRLWALGGSEAELAEFEDNIALFEYSLQHYKGKGNPEVEALVKEANAIDDELGAYRHN
notes: D domain, on phage
B36: SEQ ID NO: 564 (designed binder)
chain: MGSWYEFYERLWAIDDRLWALGGSEAELAEFEDSIATFEPSLQMYKGKGNPEVEALVAEAWAIFDELAAYRHN
notes: D domain, on phage
B37: SEQ ID NO: 546 (designed binder)
chain: MGSWNEFDDRLLAIWGRLDALGGSEAELAFFEEQIAGFEDELQWYKGKGNPEVEALDQEAEAIEKELWAYRHN
notes: D domain, on phage
B38: SEQ ID NO: 562 (designed binder)
chain: MGSWYEFNMRLGAIDDRLQALGGSEAELAWFEDMIAIFEDDLQIYKGKGNPEVEALEQEAAAIHQELWAYRHN
notes: D domain, on phage
B39: SEQ ID NO: 558 (designed binder)
chain: MGSWNEFYERLEAIDRRLFALGGSEAELALFEWMIADFEDDLQMYKGKGNPEVEALINEAGAIGFELEAYRHN
notes: D domain, on phage
B40: SEQ ID NO: 574 (designed binder)
chain: MGSWYEFEDRLAAIWDRLNALGGSEAELAIFEWDIAWFEEGLQEYKGKGNPEVEALKHEASAIQTELFAYRHN
notes: D domain, on phage

In the test the target is T1, recombinant human CD123-Fc. The test is described as follows: phage ELISA, captured CD123-Fc. In outline: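 Readout is the clone-averaged A450 ratio of target-Fc over IgG1-Fc wells, detected with HRP-conjugated anti-M13. Each Fc protein (5 nM) was captured on goat anti-human IgG1-Fc-coated plates. Phage were rescued with VCSM13 from BCMA-panning colonies and added at 5× dilution.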
For orientation: ELISA stands for enzyme-linked immunosorbent assay.
Consider B1, for which the ELISA_avg amounted to 3.9 ratio A450 target/IgG1-Fc. In the case of B2, the ELISA_avg turned out to be 3.2 ratio A450 target/IgG1-Fc. As for B3, the ELISA_avg is 4.4 ratio A450 target/IgG1-Fc. Consider B4, for which the ELISA_avg turned out to be 3.2 ratio A450 target/IgG1-Fc. As for B5, the ELISA_avg amounted to 5.4 ratio A450 target/IgG1-Fc.

Consider B6, for which the ELISA_avg worked out at 3.4 ratio A450 target/IgG1-Fc. With B7, the ELISA_avg stood at 4.4 ratio A450 target/IgG1-Fc. As for B8, the ELISA_avg turned out to be 5.9 ratio A450 target/IgG1-Fc. Consider B9, for which the ELISA_avg was 3.6 ratio A450 target/IgG1-Fc. For B10, the ELISA_avg is 4.4 ratio A450 target/IgG1-Fc. On to B11, for which the ELISA_avg was found to be 3.6 ratio A450 target/IgG1-Fc. Next, B12: 4.3 ratio A450 target/IgG1-Fc; B13: 3.2 ratio A450 target/IgG1-Fc; B14: 3.7 ratio A450 target/IgG1-Fc. B15: the ELISA_avg was determined as 4.5 ratio A450 target/IgG1-Fc. As for B16, the ELISA_avg was determined as 4.7 ratio A450 target/IgG1-Fc.

Take B17: the ELISA_avg worked out at 3.4 ratio A450 target/IgG1-Fc. B18: the ELISA_avg was determined as 6.7 ratio A450 target/IgG1-Fc. For the molecule B19, the ELISA_avg is 6.4 ratio A450 target/IgG1-Fc. Turning to B20, the ELISA_avg came out at 3.5 ratio A450 target/IgG1-Fc.

Take B21: the ELISA_avg stood at 6.4 ratio A450 target/IgG1-Fc.

Regarding B22, the ELISA_avg is 3.2 ratio A450 target/IgG1-Fc. In the case of B23, the ELISA_avg was found to be 4.7 ratio A450 target/IgG1-Fc. Next, B24: 3.4 ratio A450 target/IgG1-Fc; B25: 4.4 ratio A450 target/IgG1-Fc. Take B26: the ELISA_avg came out at 5.3 ratio A450 target/IgG1-Fc. For the molecule B27, the ELISA_avg came to 3.6 ratio A450 target/IgG1-Fc. Turning to B28, the ELISA_avg was determined as 4.6 ratio A450 target/IgG1-Fc. For the molecule B29, the ELISA_avg was found to be 4.5 ratio A450 target/IgG1-Fc. For B30 the value was 5 ratio A450 target/IgG1-Fc.

Consider B31, for which the ELISA_avg was 3.3 ratio A450 target/IgG1-Fc. For B32, the ELISA_avg stood at 3.6 ratio A450 target/IgG1-Fc.

Regarding B33, the ELISA_avg is 3.1 ratio A450 target/IgG1-Fc. As for B34, the ELISA_avg was 3.8 ratio A450 target/IgG1-Fc. Next, B35: 4.5 ratio A450 target/IgG1-Fc. As to B36, the ELISA_avg was 3.6 ratio A450 target/IgG1-Fc.

As for B37, the ELISA_avg stood at 4.1 ratio A450 target/IgG1-Fc. Turning to B38, the ELISA_avg came to 3.8 ratio A450 target/IgG1-Fc. Consider B39, for which the ELISA_avg is 5.2 ratio A450 target/IgG1-Fc. On to B40, for which the ELISA_avg was found to be 6.4 ratio A450 target/IgG1-Fc.
